Data from PMC10904049.

Legend:
CaVβ4 = CaVβ4 (UniProt D4A055); experiment: ITC; conditions: cited from earlier work
[1] = molecular target: Cerulean-tagged CaVβ2B subunit (Cerulean-WT β2B); experiment: flow cytometric FRET assay; conditions: HEK293 cells, read off a plot
[2] = FSK (10 µM) + Cal (100 nM), parent: est. 100
[3] = no FSK, no Cal, parent: est. 7.8

## Rem2 (from UniProt Q9WTY2)
CaVβ4
  Kd: 156 µM

## Venus-Rad-CAAX (WT Rad with a C-terminal CAAX motif) (from UniProt O88667) F280A; F294A
[1]; + FSK + Cal
  Kd: 21 ×10^3
[1]; no FSK + Cal
  Kd: 13 ×10^3

## Venus-Rad-CAAX (WT Rad with a C-terminal CAAX motif) (from UniProt O88667) R208A; L235A
[1]
  Kd: 140 ×10^3

## Venus-Rad-CAAX (WT Rad with a C-terminal CAAX motif) (from UniProt O88667) S256D; S272D; S289D; S298D; S300D; S305D
[1]; no FSK/Cal, parent: est. 9.3
  Kd: 12 ×10^3

## Venus-Rad-CAAX (WT Rad with a C-terminal CAAX motif) (from UniProt O88667) S272D; S289D; S298D; S300D
[1]; no FSK/Cal, parent: est. 9.3
  Kd: 11 ×10^3

## Venus-Rad-CAAX (WT Rad with a C-terminal CAAX motif) (from UniProt O88667) S272D; S300D
[1]; no FSK/Cal, parent: est. 9.3
  Kd: 12 ×10^3

## Venus-tagged WT Rad (from UniProt O88667) F280A; F294A
[1]; + FSK + Cal, parent: est. 100
  Kd: 190 ×10^3
[1]; no FSK + Cal, parent: est. 8
  Kd: 41 ×10^3

## Venus-tagged WT Rad (from UniProt O88667) R208A; L235A
[1]; parent: est. 8
  Kd: 140 ×10^3

## Venus-tagged WT Rad (from UniProt O88667) S25A; S38A
[1]; [2]
  Kd: 44 ×10^3
[1]; [3]
  Kd: 7.5 ×10^3

## Venus-tagged WT Rad (from UniProt O88667) S25A; S38A; S272A; S300A
[1]; Cal (100 nM), no FSK
  Kd: 14 ×10^3
[1]; [2]
  Kd: 13 ×10^3
[1]; FSK (10 µM), no Cal
  Kd: 11 ×10^3
[1]; [3]
  Kd: 11 ×10^3

## Venus-tagged WT Rad (from UniProt O88667) S25D; S38D
[1]; no FSK/Cal, parent: est. 7.8
  Kd: 9.2 ×10^3

## Venus-tagged WT Rad (from UniProt O88667) S25D; S38D; S272D; S300D
[1]; no FSK/Cal, parent: est. 7.8
  Kd: 18 ×10^3

## Venus-tagged WT Rad (from UniProt O88667) S25D; T26D; S38D; M39D
[1]; no FSK/Cal, parent: est. 7.8
  Kd: 5.7 ×10^3

## Venus-tagged WT Rad (from UniProt O88667) S256D; S272D; S289D; S298D; S300D; S305D
[1]; no FSK/Cal, parent: est. 7.8
  Kd: 83 ×10^3

## Venus-tagged WT Rad (from UniProt O88667) S272A; S300A
[1]; [2]
  Kd: 17 ×10^3
[1]; [3]
  Kd: 6.3 ×10^3

## Venus-tagged WT Rad (from UniProt O88667) S272D; S289D; S298D; S300D
[1]; no FSK/Cal, parent: est. 7.8
  Kd: 57 ×10^3

## Venus-tagged WT Rad (from UniProt O88667) S272D; S300D
[1]; no FSK/Cal, parent: est. 7.8
  Kd: 18 ×10^3
